# In patent US11202837B2, “Biological materials and uses thereof” (Antikor Biopharma Limited, priority 2014, dated 2021):
# Like-named read-outs stand apart in the source and are kept apart here. Where a SMILES comes first, the peptide text is derived from it. [ ]: non-standard residue; d: D form. The star is where a group is joined. Dolaproine = CO[C@@H]([C@@H]1CCCN1)[C@@H](C)C(=O)O; Dil = CC[C@H](C)[C@H](NC)[C@@H](CC(=O)O)OC; NMe2Val = CC(C)[C@@H](C(=O)*)N(C)C; NMeV = CN[C@H](C(=O)O)C(C)C
# How the values were obtained:
# [1] = tested on: SKBr3 cells; experiment: Cell killing assay (MTS), SKBr3 cells; type: cell-based, human
# Protocol: SKBr3, human breast cancer cell line, high HER2 expression levels, up to 1,000,000 receptors per cell [Lazar G A, et al Proc Natl Acad Sci USA. […] When confluency was 70-80%, cells were washed with PBS (2×10 ml) and incubated with trypsin for 5-7 min. Complete media was added and the cells were resuspended by pipetting. The cells were recovered by centrifugation (2 min, 2000 rpm), the supernatant was discarded, and the cells were resuspended in complete DMEM (5 ml). The cells were then counted using a haemocytometer and diluted accordingly. They were plated at 4500 cells/well (200 μl) using attachment factor and incubated overnight at 37° C., 5% CO2 in a humidified atmosphere. U87 is a non-HER2 expressing glioblastoma cell line and was grown in a similar way, plated at 1000 cells/well.
# (§1) […] Cell viability was measured using the Promega Aqueous Cell-titre-96™ aqueous one solution cell proliferation kit according to manufacturer's instructions. Briefly, the media was removed and 100 μl of complete phenol red free media, pre-combined with MTS reagent, was added to the cells (20 μl of reagent per 100 μl of media). The plates were read on an ELISA plate reader at 490 nm after a 2 hr incubation in the dark (5% CO2, 37° C.).
# (§2) The data (absorption units) were converted to % cell survival by using the untreated controls as the 100% cell survival and the Triton X-100 controls as the 100% cell death. The average absorption value for the latter was subtracted from all the rest of the data in order to get a suitable baseline. The averages were converted to survival and standard error values were obtained for each n value (as a % cell survival). […] Experiments were repeated at least 3 times for each compound tested and a set or an average of the data was plotted and fitted to obtain a dose response curve.
# (§3) The cells were recovered by centrifugation (2 min, 2000 rpm), the supernatant was discarded, and the cells were resuspended in complete McCoy's 5A (5 ml). The cells were then counted using a haemocytometer and diluted accordingly. They were plated at 5000 cells/well (200 μl) using attachment factor and incubated overnight at 37° C., 5% CO2 in a humidified atmosphere. U87 is a non-HER2 expressing glioblastoma cell line [Zitron I M et al (2013) BMC Cancer 13:83] and was grown in a similar way, plated at 1000 cells/well (using DMEM media). BT474 is a HER2 expressing breast cancer cell line [Brockhoff G et al (2007) Cell Prolif 40:488-507] and was grown in a similar way, plated at 7500 cells/well (using RPMI media). NCI-N87 is a HER2 expressing gastric cancer cell line [Yamashita-Kashima Y et al (2013) Oncol. Rep 30:1087-93] and was grown in a similar way, plated at 7500 cells/well (using RPMI media).
# as §1, with “kit (MTS reagent)” for “kit”
# The data (absorption units) were converted to % cell survival by using the untreated controls as the 100% cell survival and the Triton X-100 controls as the 100% cell death. The average absorption value for the latter was subtracted from all the rest of the data in order to get a suitable baseline. The averages were converted to survival and standard error values were obtained for each n value (as a % cell survival).
# [2] = tested on: BT474 cells; experiment: Cell killing assay (MTS), BT474 cells; type: cell-based, human
# Protocol: as §3
# The cells were exposed to the various ADCs diluted in complete media for 96 hours at 37° C., 5% CO2 in a humidified atmosphere. Cell viability was measured using the Promega Aqueous Cell-titre-96™ aqueous one solution cell proliferation kit (MTS reagent) according to manufacturer's instructions. Briefly, the media was removed and 100 μl of complete phenol red free media, pre-combined with MTS reagent, was added to the cells (20 μl of reagent per 100 μl of media). The plates were read on an ELISA plate reader at 490 nm after a 2 hr incubation in the dark (5% CO2, 37° C.).
# as §2, with “dose-response” for “dose response”
# [3] = target: HER2 (Homo sapiens, UniProt P04626); experiment: Biacore SPR binding to immobilised HER2; details: immobilised HER2
# Protocol: The binding affinity against immobilised HER2 target antigen was determined by Biacore SPR compared to the unmodified scFv on a Biacore T200. A standard amine-coupling method was used to prepare all Biacore surfaces (CM5 or CM3), as follows. Flow cells were activated individually by injecting a freshly mixed solution of 0.2M EDC in 0.05 M NHS at 30 μl/min. […] Excess NHS ester was deactivated using a 1 M ethanolamine solution. To measure the kinetics of the antibody and conjugate on the HER2 chip, a […] serial dilution (typically at 5, 2.5, 1.25, 0.6 μg/ml or lower for free antibody and 20, 10, 5, 2.5 μg/ml for the conjugates), was injected for 160 s at 30 μl/min, allowing a 900-s dissociation phase. The dissociation time was extended to 3600 s for the highest concentration. Surfaces were regenerated with 45 s injection of MgCl2 8M.
# To evaluate binding ability, manual runs were performed at 30 μl/min with a 60 s injection of the desired compound followed by 60 s waiting time and a 45 s of regeneration at 10 μl/min using MgCl2 8M. All data was analysed using the software, BIAEvaluation.
# [4] = SKBr3 Cells (HER2 +++), 4 hours incubation, Table 52
# [5] = SKBr3 Cells (HER2 +++), 4 hours incubation, Table 52, read-out: IC50
# [6] = SKBr3 Cells (HER2 +++), 96 hours incubation, Table 52
# [7] = SKBr3 Cells (HER2 +++), 96 hours incubation, Table 52, read-out: IC50
# [8] = 96 hours exposure, read-out: IC50 nM SKBr3 Cells (HER2+++)
molecule,measurement,setting,value
CC[C@H](C)[C@@H]([C@@H](CC(=O)N1CCC[C@H]1[C@H](OC)[C@@H](C)C(=O)N[C@@H](Cc1ccccc1)C(=O)O)OC)N(C)C(=O)[C@@H](NC(=O)[C@H](C(C)C)N(C)C)C(C)C [Free Auristatin] (NMe2Val-V[Dil][Dolaproine]F-OH),IC50 μg/ml,[1]; [4],0.00181 µg/mL
same,IC50,[1]; [5],> 100 nM
same,IC50 μg/ml,[1]; [6],0.00081 µg/mL
same,IC50,[1]; [7],> 10 nM
CC[C@H](C)[C@@H]([C@@H](CC(=O)N1CCC[C@H]1[C@H](OC)[C@@H](C)C(=O)N[C@@H](Cc1ccccc1)C(=O)O)OC)N(C)C(=O)[C@@H](NC(=O)[C@@H](NC)C(C)C)C(C)C [Free drug MMAF] (H-[NMeV]V[Dil][Dolaproine]F-OH),IC50,"[2]; Homo sapiens, BT-474, 96 h, read-out: IC50 pM",> 10000 pM
scFv (TCT1067)-MMAF-C5 DAR 5.2 (conjugate) scFv: SGSGGSGQVQLVQSGAEVKKPGESLKISCKGSGYSFTSYWIAWVRQMPGKGLEYMGLIYPGDSDTKYSPSFQGQVTISVDKSVSTAYLQWSSLKPSDSAVYFCARHDVGYCTDRTCAAWPEWLGVWGQGTLVTVSSGGGGSGGGGSGGGGSQSVLTQPPSVSAAPGQKVTISCSGSSSNIGNNYVSWYQQLPGTAPKLLIYGHTNRPAGVPDRFSGSKSGTSASLAISGFRSEDEADYYCASWDYTLSGWVFGGGTKLTVLMASMTGGQQMG,association rate,[3],1.8e+06 M⁻¹ s⁻¹
same,dissociation rate,[3],3.4e-05 s⁻¹
scFv (TCT1067)-Auristatin-F-C5 DAR 3.3 (conjugate) scFv: SGSGGSGQVQLVQSGAEVKKPGESLKISCKGSGYSFTSYWIAWVRQMPGKGLEYMGLIYPGDSDTKYSPSFQGQVTISVDKSVSTAYLQWSSLKPSDSAVYFCARHDVGYCTDRTCAAWPEWLGVWGQGTLVTVSSGGGGSGGGGSGGGGSQSVLTQPPSVSAAPGQKVTISCSGSSSNIGNNYVSWYQQLPGTAPKLLIYGHTNRPAGVPDRFSGSKSGTSASLAISGFRSEDEADYYCASWDYTLSGWVFGGGTKLTVLMASMTGGQQMG,association rate,[3],556000 M⁻¹ s⁻¹
same,dissociation rate,[3],1.82e-05 s⁻¹
scFv (TCT1067)-P5C5 DAR 10.6 (conjugate) scFv: SGSGGSGQVQLVQSGAEVKKPGESLKISCKGSGYSFTSYWIAWVRQMPGKGLEYMGLIYPGDSDTKYSPSFQGQVTISVDKSVSTAYLQWSSLKPSDSAVYFCARHDVGYCTDRTCAAWPEWLGVWGQGTLVTVSSGGGGSGGGGSGGGGSQSVLTQPPSVSAAPGQKVTISCSGSSSNIGNNYVSWYQQLPGTAPKLLIYGHTNRPAGVPDRFSGSKSGTSASLAISGFRSEDEADYYCASWDYTLSGWVFGGGTKLTVLMASMTGGQQMG,IC50 μg/ml,"[2]; BT474 Cells (HER2++), 96 hours, Table 48",0.5 µg/mL
same,IC50,"[2]; BT474 Cells (HER2++), 96 hours, Table 48, read-out: IC50",17800 pM
scFv (TCT1067)-Auristatin-F-C5 DAR 11.9 (conjugate) scFv: SGSGGSGQVQLVQSGAEVKKPGESLKISCKGSGYSFTSYWIAWVRQMPGKGLEYMGLIYPGDSDTKYSPSFQGQVTISVDKSVSTAYLQWSSLKPSDSAVYFCARHDVGYCTDRTCAAWPEWLGVWGQGTLVTVSSGGGGSGGGGSGGGGSQSVLTQPPSVSAAPGQKVTISCSGSSSNIGNNYVSWYQQLPGTAPKLLIYGHTNRPAGVPDRFSGSKSGTSASLAISGFRSEDEADYYCASWDYTLSGWVFGGGTKLTVLMASMTGGQQMG,association rate,[3],21700 M⁻¹ s⁻¹
same,dissociation rate,[3],1.76e-05 s⁻¹
ScFv (TCT1067)-AF-C5 DAR 5.3 (conjugate) scFv: SGSGGSGQVQLVQSGAEVKKPGESLKISCKGSGYSFTSYWIAWVRQMPGKGLEYMGLIYPGDSDTKYSPSFQGQVTISVDKSVSTAYLQWSSLKPSDSAVYFCARHDVGYCTDRTCAAWPEWLGVWGQGTLVTVSSGGGGSGGGGSGGGGSQSVLTQPPSVSAAPGQKVTISCSGSSSNIGNNYVSWYQQLPGTAPKLLIYGHTNRPAGVPDRFSGSKSGTSASLAISGFRSEDEADYYCASWDYTLSGWVFGGGTKLTVLMASMTGGQQMG,IC50 μg/ml,[1]; [4],0.00181 µg/mL
same,IC50,[1]; [5],0.0644 nM
same,IC50 μg/ml,[1]; [6],0.00081 µg/mL
same,IC50,[1]; [7],0.0288 nM
scFv (TCT1067)-Auristatin-F-C5 DAR 5.65 (conjugate) scFv: SGSGGSGQVQLVQSGAEVKKPGESLKISCKGSGYSFTSYWIAWVRQMPGKGLEYMGLIYPGDSDTKYSPSFQGQVTISVDKSVSTAYLQWSSLKPSDSAVYFCARHDVGYCTDRTCAAWPEWLGVWGQGTLVTVSSGGGGSGGGGSGGGGSQSVLTQPPSVSAAPGQKVTISCSGSSSNIGNNYVSWYQQLPGTAPKLLIYGHTNRPAGVPDRFSGSKSGTSASLAISGFRSEDEADYYCASWDYTLSGWVFGGGTKLTVLMASMTGGQQMG,association rate,[3],336000 M⁻¹ s⁻¹
same,dissociation rate,[3],1.35e-05 s⁻¹
"scFv (TCT)-P5C5, DAR = 5 (conjugate) scFv: SGSGGSGQVQLVQSGAEVKKPGESLKISCKGSGYSFTSYWIAWVRQMPGKGLEYMGLIYPGDSDTKYSPSFQGQVTISVDKSVSTAYLQWSSLKPSDSAVYFCARHDVGYCSSSNCAAWPEYFQHWGQGTLVTVSSGGGGSGGGGSGGGGSQSVLTQPPSVSAAPGQKVTISCSGSSSNIGNNYVSWYQQLPGTAPKLLIYGHTNRPAGVPDRFSGSKSGTSASLAISGFRSEDEADYYCAAWDDSLSGWVFGGGTKLTVLMASMTGGQQMG",IC50 μg/ml SKBr3 Cells (HER2+++),[1]; 96 hours exposure,1.33 ± 0.1 µg/mL
same,IC50,[1]; [8],47.5 ± 0.36 nM
"scFv (TCT)-P5C5, DAR = 8 (conjugate) scFv: SGSGGSGQVQLVQSGAEVKKPGESLKISCKGSGYSFTSYWIAWVRQMPGKGLEYMGLIYPGDSDTKYSPSFQGQVTISVDKSVSTAYLQWSSLKPSDSAVYFCARHDVGYCSSSNCAAWPEYFQHWGQGTLVTVSSGGGGSGGGGSGGGGSQSVLTQPPSVSAAPGQKVTISCSGSSSNIGNNYVSWYQQLPGTAPKLLIYGHTNRPAGVPDRFSGSKSGTSASLAISGFRSEDEADYYCAAWDDSLSGWVFGGGTKLTVLMASMTGGQQMG",IC50 μg/ml SKBr3 Cells (HER2+++),[1]; 96 hours exposure,0.8 ± 0.1 µg/mL
same,IC50,[1]; [8],28 ± 0.36 nM
